# Publication PMC10207940, “Characterization of RBD-specific cross-neutralizing antibodies responses against SARS-CoV-2 variants from COVID-19 convalescents” (Frontiers in Immunology, 2023)
# B1: antibody 3G10 (antibody, V domains shown)
# VH: EVQLVESGGGLVQPGESLRLSCAASGLTVSSNYMSWVRQAPGKGLEWVSVIYAGGSTFYADSVKGRFTISRDNSKNTLYLQMNSLRAEDMAIYYCARDLSYYGMDVWGQGTTVTVSS
# VL: DIQLTQFPFSLSASVGDRVTITCRASQGISTYLAWYQQKPGRAPKLLIYAASTLQSGVPSRFSGSGSGTEFTLTISSLQPEDFATYYCQLLNSYPVHFGQGTKLEIK
# B2: antibody 3C11 (antibody, V domains shown)
# VH: EVQLVESGGGLVQPGGSLRLSCAASGFAFSTYEMNWVRQAPGKGLEWVSYIHNSGNPVYYADSVKGRFTISRDNAENSLYLQMNSLRAEDTAIYYCARALRYSTSWYDYWGQGTLVTVSS
# VL: EIVLTQSPVSLSLSPGERATLSCRASQSVSSYLAWYQQKPGQAPRLFIYDASKRATGIPARFSGSGSGTDFTLTISSLEPEDFAVYYCQQRSNWPRTFGQGTKVEIK
# B3: antibody 1D7 (antibody, V domains shown)
# VH: QVQLVQSGAEVKTPGSSVKVSCKASGGSFSNYAISWVRQAPGQGLEWMGRIIATLGISNYAQKFQGRVTMTADKSTSTAYMELSSLRSEDTAVYYCASPITNFGVLIEVDAFHIWGQGTMVTVSS
# VL: EIVLTQSPFTLSLSPGERATLSCGASQSVSSSYLAWYQQKPGLAPRLLIYDGSSRATDIPDRFSGSGSGTDFTLTISRLEPEDFAMYYCQQYSTSPLTFGGGTKVEIK
# How the values were obtained:
# [1] = target: T1, SARS-CoV-2 RBD (receptor binding domain) with Avi-tag, biotinylated (SARS-CoV-2, WH-1 (Wuhan-Hu-1, MN908947), UniProt P0DTC2); experiment: BLI; biotinylated RBD (5 μg/mL in PBST: PBS, 0.02% Tween 20, 0.1% BSA) immobilised on streptavidin biosensors; antibodies 500-7.8125 nM, 120 s association, 300 s dissociation; 1:1 binding model; conditions: both partners purified
# T1 construct: also called recombinant RBD protein probe; biotinylated RBD; not shown: Avi-tag, C-terminal, kept
# [2] = target: T1, SARS-CoV-2 RBD (receptor binding …); experiment: cell-based or functional assay
# [3] = target: T2, SARS-CoV-2 RBD as crystallised with 3G10 and 3C11 (SARS-CoV-2, prototype (WH-1)); experiment: crystal structure; conditions: both partners purified
# T2 construct: also called prototype (PT) RBD
Binder,Kd [1] [nM],"IC50 of neutralisation of SARS-CoV-2 pseudovirus (WH-1), luciferase read-out on Vero cells [2] [µg/mL]","IC50 of neutralisation of authentic SARS-CoV-2 WH-1 virus, CPE-based method on Vero cells [2] [µg/mL]",binding result [3]
B1,1.37,< 0.1,0.028,binds
B2,5.29,< 0.1,0.028,binds
B3,< 0.001,< 0.1,0.009,–
